Source: publication PMC5705260

What was measured:
[1] = molecular target: ArtB (Salmonella enterica serovar Typhimurium DT104) (UniProt Q404H3); assay: ion exchange chromatography + SEC
[2] = molecular target: ArtB (Salmonella enterica serovar Typhimurium DT104) (UniProt Q404H3); assay: co-purification of co-expressed subunits
[3] = molecular target: ArtB-His6 (Salmonella enterica serovar Typhimurium DT104) (UniProt Q404H3); assay: crystal structure
[4] = molecular target: PltB-His6 (Salmonella Typhi) (UniProt Q8Z6A3); assay: crystal structure

## ArtB (from UniProt Q404H3 1-141) (natural protein)
[1]
  stoichiometry N: 5
[2]
  stoichiometry N: 5

## ArtB-His6 (from UniProt Q404H3 1-141) (natural protein)
[3]
  stoichiometry N: 5

## PltB-His6 (from UniProt Q8Z6A3 1-137) (natural protein)
[4]
  stoichiometry N: 5
